According to patent US9458465B2, “Compositions and methods to modulate cell membrane resealing” (RUTGERS, THE STATE UNIVERSITY OF NEW JERSEY, priority 2007, dated 2016):
Changes are numbered by the printed parent chain. Names may count otherwise.

How the values were obtained:
[1] = test system: C2C12 cells expressing GFP-MG53; assay: Repair of acute membrane damage: translocation to microelectrode injury site; assay type: cell-based, murine; conditions: for Membrane Repair (+Zn-HPT): 2 μM Zn-HPT; for Membrane Repair (−Zn-HPT): extracellular solution with nominal free zinc
Procedure: To follow the process of intracellular vesicle translocation associated with repair of acute membrane damage, GFP-MG53 fusion protein was expressed in C2C12 myoblast cells (FIG. 21a). […]
Cell culture—The C2C12 murine myoblast cell line used for all studies was purchased from the American Type Culture Collection (Manassas, Va.). Cells were grown in a humidified environment at 37° C. and 5% CO2 in DMEM medium for C2C12 or Ham's F12 medium for CHO cells supplemented with 10% fetal bovine serum, 100 units/ml penicillin and 100 ug/ml streptomycin. In order to induce myotube differentiation, C2C12 myoblasts were grown to confluence and the medium was switched to DMEM containing 2% horse serum, penicillin (100 U/ml), streptomycin (100 μg/ml). For transient transfections, C2C12 myoblasts or CHO cells were plated at 70% confluence in glass-bottom dishes. After 24 hours, cells were transfected with plasmids described above using GeneJammer reagent (Stratagene). Cells were visualized by live cell confocal imaging at 24-48 hours after transfection or at times indicated for individual experiments. In some experiments, C2C12 myoblasts were allowed to differentiate into myotubes for the indicated time before observation.
Live cell imaging—To monitor intracellular trafficking of GFP-MG53 either CHO or C2C12 cells were cultured in glass-bottom dishes (Bioptechs Inc.) and transfected with the plasmids described above. Fluorescence images (512×512) were captured at 3.18 s/frame using a BioRad 2100 Radiance laser scanning confocal microscope with a 63×1.3NA oil immersion objective.

[2] = test system: FDB muscle fibers from wild type (WT) mice; assay: FM1-43 dye entry after UV-laser damage, wild type FDB muscle fibers; assay type: cell-based
Procedure: (§1) FIG. 20. Protective effect of zinc on membrane repair is lost in mg53−/− skeletal muscle. (a) individual flexor digitorum brevis (FDB) muscle fibers were isolated from wild type (WT) mice (3-6 months). A strong UV laser was applied to the FDB fiber that caused local damage to the muscle (arrow). Entry of FM1-43 fluorescent dye (2.5 μM) was used as an indicator for the measurement of membrane repair capacity. The images were taken 200 s following UV irradiation (control). […] (d) Schematic diagram of zinc-binding motifs in MG53. The amino-terminus of MG53 contains two putative zinc-binding motifs: one located at the RING motif (a.a. 1-56, human cDNA), and the other located at the B-box motif (a.a. 86-117, human cDNA). The specific amino acids that participate in zinc-binding are indicated.
as §1, with “Protective” for “FIG. 20. Protective”, “To access membrane repair capacity,” for “(a)”, “months) (FIG. 20a).” for “months).”, “Summary data for panel a and b (FIG. 20c). […]” for “(d)”, “indicated (FIG. 20d).” for “indicated.”

[3] = test system: HEK293 cells; assay: LDH release after glass microbead damage, HEK293; assay type: cell-based, human
Procedure: Recombinant MG53 can protect kidney cells from mechanical cell membrane damage. HEK293 cells (8×10^4) were treated with glass microbeads to induce mechanical damage (FIG. 37). Different does of recombinant human MG53 or vehicle control was applied to the samples when glass beads were added to the media. Cells were rotated on an orbital shaker and then the supernatant was analyzed for LDH levels.
(§2) Externally applied recombinant MG53 requires phosphatidylserine (PS) binding to reseal damaged membranes. HEK293 cells were treated with recombinant human MG53 or vehicle and them damaged by shaking in the presence of glass microbeads (black bars) (FIG. 40). Membrane damage is measured by LDH release from cells that is recorded by colormetric assay recorded at 488 nm. […] Thus, MG53 must be able to bind exposed PS on damaged cells in order to facilitate membrane repair. * p<0.05
as §2, with “HEK293” for “Externally applied recombinant MG53 requires phosphatidylserine (PS) binding to reseal damaged membranes. HEK293”, “41).” for “40).”

[4] = test system: mg53−/− myotubes; assay: Membrane repair in transfected mg53−/− myotubes; assay type: cell-based, mice; conditions: transfected mg53−/− myotubes; UV injury
Source text: The entry of FM4-64, a red-shifted variant of FM1-43, was used as an index of membrane repair capacity in mg53−/− myotubes transfected with GFP-MG53 and GFP-C242A. Following UV-bleaching of the green fluorescence, rapid translocation of GFP-MG53 took place at the injury site, whereas GFP-C242A remained static due to its defective oligomerization properties (FIG. 16E, 17A).
Similar defects with GFP-C29L were also observed in C2C12 myotubes (FIG. 18e, middle).

[5] = C2C12 cells, listed as GFP-C105S
[6] = C2C12 cells, listed as GFP-C29L/C105S

O[C@H](CS)[C@H](O)CS (racemic) [DTT, dithiothreitol, reference compound]
translocation of GFP-MG53 toward the injury site ([1]; reduced extracellular environment (+DTT), 5 mM DTT): largely disrupted
membrane resealing (entry of FM-143 dye) ([2]; isolated muscle fibers, DTT in the extracellular solution): prevents membrane resealing

Thimerosal [reference compound]
translocation of GFP-MG53 to injury sites ([1]; oxidizing agent Thimerosal in the extracellular solution): increased translocation

phosphatidylserine [phosphatidylserine (PS), reference compound]
effect on MG53 resealing of plasma membrane ([3]; simultaneous treatment with recombinant human MG53): can prevent resealing of plasma membrane

B1: C242A: MG53 mutant, conserved cysteine 242 mutated into alanine (protein)
chain: MSAAPGLLRQELSCPLCLQLFDAPVTAECGHSFCRACLIRVAGEPAADGTVACPCCQAPTRPQALSTNLQLSRLVEGLAQVPQGHCEEHLDPLSIYCEQDRTLVCGVCASLGSHRGHRLLPAAEAQARLKTQLPQQKMQLQEACMRKEKTVAVLEHQLVEVEETVRQFRGAVGEQLGKMRMFLAALESSLDREAERVRGDAGVALRRELSSLNSYLEQLRQMEKVLEEVADKPQTEFLMKFALVTSRLQKILSESPPPARLDIQLPVISDDFKFQVWKKMFRALMPALEELTFDPSSAHPSLVVSSSGRRVECSDQKAPPAGEDTRQFDKAVAVVAQQLLSQGEHYWEVEVGDKPRWALGVMAADASRRGRLHAVPSQGLWLLGLRDGKILEAHVEAKEPRALRTPERPPARIGLYLSFADGVLAFYDASNPDVLTPIFSFHERLPGPVYPIFDVCWHDKGKNAQPLLLVGPEQEQA
modifications: left off: large carriers
notes: MG53 mutant, conserved cysteine 242 mutated into alanine
entry of FM4-64 (membrane repair capacity) [4]: not able to restore membrane integrity following injury
translocation to injury site and membrane repair function of GFP fusion protein ([1]; C2C12 cells, acute membrane damage): completely disrupted its ability to facilitate the membrane repair process
sarcolemmal membrane repair function ([2]; overexpression in adult wt muscle fibers, compared with GFP-MG53): inhibited sarcolemmal membrane repair function

B2: C105S: MG53 single mutation of the B-box motif (protein)
chain: B1 chain with C105S, A242C
modifications: left off: large carriers
notes: MG53 single mutation of the B-box motif
Membrane Repair (+Zn-HPT) [1, 5]: partial rescue of the membrane repair capacity
Membrane Repair (−Zn-HPT) [1, 5]: could not move to the acute injury site

B3: C29L/C105S: MG53 double mutant of RING motif (C29L) and B-box motif (C105S) (protein)
chain: B1 chain with C29L, C105S, A242C
modifications: left off: large carriers
Membrane Repair (+Zn-HPT) [1, 6]: completely defective in repair of acute membrane damage
Membrane Repair (−Zn-HPT) [1, 6]: completely defective in repair of acute membrane damage

B4: Annexin V: a phosphatidylserine (PS) binding protein (protein, UniProt P08758 2-320, looked up)
Annexin A5: AQVLRGTVTDFPGFDERADAETLRKAMKGLGTDEESILTLLTSRSNAQRQEISAAFKTLFGRDLLDDLKSELTGKFEKLIVALMKPSRLYDAYELKHALKGAGTNEKVLTEIIASRTPEELRAIKQVYEEEYGSSLEDDVVGDTSGYYQRMLVVLLQANRDPDAGIDEAQVEQDAQALFQAGELKWGTDEEKFITIFGTRSVSHLRKVFDKYMTISGFQIEETIDRETSGNLEQLLLAVVKSIRSIPAYLAETLYYAMKGAGTDDHTLIRVMVSRSEIDLFNIRKEFRKNFATSLYSMIKGDTSGDYKKALLLLCGEDD
effect on MG53 resealing of plasma membrane ([3]; excess (5:1), simultaneous with recombinant human MG53): can prevent resealing of plasma membrane
